# Measured values published in patent publication US20030148958A1 (PROCTER AND GAMBLE, published 2003).
# Ends that are not written are not given here.
# T1: corticotropin releasing factor 2 receptor
# T1 sequence (Q13324 whole entry, species assumed, looked up): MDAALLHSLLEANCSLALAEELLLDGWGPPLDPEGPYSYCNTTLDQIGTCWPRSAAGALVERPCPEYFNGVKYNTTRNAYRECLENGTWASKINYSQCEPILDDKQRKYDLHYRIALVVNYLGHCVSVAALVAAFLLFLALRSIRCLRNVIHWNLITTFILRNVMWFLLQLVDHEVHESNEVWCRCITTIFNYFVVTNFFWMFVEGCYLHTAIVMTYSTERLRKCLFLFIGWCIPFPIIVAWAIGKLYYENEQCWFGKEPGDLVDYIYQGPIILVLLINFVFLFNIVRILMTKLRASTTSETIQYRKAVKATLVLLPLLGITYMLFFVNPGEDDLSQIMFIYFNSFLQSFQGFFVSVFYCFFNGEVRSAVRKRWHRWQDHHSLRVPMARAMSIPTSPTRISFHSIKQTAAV
# Assays:
# [1] = biological target: corticotropin releasing factor 1 receptor; assay: cell-based or functional assay
# [2] = biological target: T1, corticotropin releasing factor 2 …; assay: cell-based or functional assay
# Wherever CRF1R Emax is given: reference of the scale not given here.
# Wherever CRF2R Emax is given: reference of the scale not given here.
CRF1R EC50 [1],CRF1R Emax [1],CRF2R EC50 [2],CRF2R Emax [2],Binder
1000 nM,55.7%,5.17 nM,96.5%,DNPSLSIDLPLFLLRTLLELARTQSQRERAEQNAIIFASV-NH2 [SEQ ID NO 178]
358 nM,95.8%,8.98 nM,100%,DNPSLSIDLPFHLLRTLLELARTQSQRERAEQNAIIFASV-NH2 [SEQ ID NO 185]
1000 nM,26.9%,12.6 nM,90.2%,DNPSLSIDLPLQLLRTLLELARTQSQRERAEQNAIIFASV-NH2 [SEQ ID NO 176]
106 nM,100%,5.29 nM,97%,ZGPPISIDLPFQLLRKMIEIEKQEKEKQQATTNRLLLDRV (C-terminal amide) [SEQ ID NO 18]
> 100 nM,9%,39.6 nM,31%,ZGPPISIDLPFVLLRKMIEIEKQEKEKQQAANNRLLLDTI (C-terminal amide) [SEQ ID NO 190]
62.2 nM,57%,7 nM,96%,ZGPPISIDLPFILLRKMIEIEKQEKEKQQAANNRLLLDTI (C-terminal amide) [SEQ ID NO 189]
908 nM,88%,8.46 nM,96%,ZGPPISIDLPFQLLRKMIEIEKQEKEKQQATTNARLLATV (C-terminal amide) [SEQ ID NO 21]
906 nM,60%,7.81 nM,99%,ZGPPISIDLPFQLLRKMIEIEKQEKEKQQATTNARLLDTV (C-terminal amide) [SEQ ID NO 20]
232 nM,83%,7.42 nM,75%,ZGPPISIDLPFQLLRKMIEIEKQEKEKQQATTNRLLLARV (C-terminal amide) [SEQ ID NO 19]
404 nM,100%,8.7 nM,99%,ZGPPISIDLPYQLLRKMIEIEKQEKEKQQAANNRLLLDTI (C-terminal amide) [SEQ ID NO 202]
63.7 nM,65%,8.3 nM,100%,ZGPPISIDLPFLLLRKMIEIEKQEKEKQQAANNRLLLDTI (C-terminal amide) [SEQ ID NO 191]
1000 nM,34.8%,5.42 nM,92.2%,DNPSLSIDLPLILLRTLLELARTQSQRERAEQNAIIFASV-NH2 [SEQ ID NO 175]
613 nM,69.2%,5.63 nM,97.7%,DNPSLSIDLPLYLLRTLLELARTQSQRERAEQNAIIFASV-NH2 [SEQ ID NO 177]
323 nM,100%,25.1 nM,100%,ZGPPISIDLPHWLLRKMIEIEKQEKEKQQAANNRLLLDTI (C-terminal amide) [SEQ ID NO 186]
31.6 nM,72%,10.3 nM,100%,ZGPPISIDLPWFLLRKMIEIEKQEKEKQQAANNRLLLDTI (C-terminal amide) [SEQ ID NO 187]
696 nM,97%,30.5 nM,97%,ZGPPISIDLPAHLLRKMIEIEKQEKEKQQAANNRLLLDTI (C-terminal amide) [SEQ ID NO 206]
99.6 nM,80%,5 nM,100%,ZGPPISIDLPYVLLRKMIEIEKQEKEKQQAANNRLLLDTI (C-terminal amide) [SEQ ID NO 201]
103 nM,93%,18.8 nM,,ZGPPISIDLPLFLLRKMIEIEKQEKEKQQAANNRLLLDTI (C-terminal amide) [SEQ ID NO 195]
562 nM,99%,66.8 nM,97%,ZGPPISIDLPIWLLRKMIEIEKQEKEKQQAANNRLLLDTI (C-terminal amide) [SEQ ID NO 192]

CRF1R EC50 [1],CRF1R Emax [1],CRF2R EC50 [2],CRF2R Emax [2],Binder
76.2 nM,86%,5.2 nM,94%,ZGPPISIDLPYLLLRKMIEIEKQEKEKQQAANNRLLLDTI (C-terminal amide) [SEQ ID NO 203]
32.1 nM,74%,3.6 nM,93%,ZGPPISIDLPYILLRKMIEIEKQEKEKQQAANNRLLLDTI (C-terminal amide) [SEQ ID NO 204]
466 nM,88%,61.4 nM,96%,ZGPPISIDLPQHLLRKMIEIEKQEKEKQQAANNRLLLDTI (C-terminal amide) [SEQ ID NO 207]
106 nM,94%,5 nM,96%,ZGPPISIDLPLILLRKMIEIEKQEKEKQQAANNRLLLDTI (C-terminal amide) [SEQ ID NO 194]
266 nM,95%,10.1 nM,97%,ZGPPISIDLPLVLLRKMIEIEKQEKEKQQAANNRLLLDTI (C-terminal amide) [SEQ ID NO 193]
126 nM,88%,25 nM,93%,ZGPPISIDLPHHLLRKMIEIEKQEKEKQQAANNRLLLDTI (C-terminal amide) [SEQ ID NO 205]
188 nM,99%,8.8 nM,100%,ZGPPISIDLPYTLLRKMIEIEKQEKEKQQAANNRLLLDTI (C-terminal amide) [SEQ ID NO 200]
64.9 nM,81%,5.6 nM,88%,ZGPPISIDLPYHLLRKMIEIEKQEKEKQQAANNRLLLDTI (C-terminal amide) [SEQ ID NO 208]
162 nM,96%,14.6 nM,100%,ZGPPISIDLPLLLLRKMIEIEKQEKEKQQAANNRLLLDTI (C-terminal amide) [SEQ ID NO 188]
447 nM,96%,27.7 nM,97%,ZGPPISIDLPQLLLRKMIEIEKQEKEKQQAANNRLLLDTI (C-terminal amide) [SEQ ID NO 196]
706 nM,93%,8.5 nM,92%,ZGPPISIDLPQILLRKMIEIEKQEKEKQQAANNRLLLDTI (C-terminal amide) [SEQ ID NO 199]
477 nM,78.9%,10.2 nM,92.5%,DNPSLSIDLPLHLLRTLLELARTQSQRERAEQNAIIFASV-NH2 [SEQ ID NO 179]
409 nM,89.7%,7.21 nM,91.4%,DNPSLSIDLPFQLLRTLLELARTQSQRERAEQNAIIFASV-NH2 [SEQ ID NO 182]
415 nM,57.5%,7.93 nM,100%,DNPSLSIDLPFYLLRTLLELARTQSQRERAEQNAIIFASV-NH2 [SEQ ID NO 183]
1000 nM,29.1%,4.42 nM,97.2%,DNPSLSIDLPLLLLRTLLELARTQSQRERAEQNAIIFASV-NH2 [SEQ ID NO 174]
486 nM,77.3%,3.72 nM,96.5%,DNPSLSIDLPFFLLRTLLELARTQSQRERAEQNAIIFASV-NH2 [SEQ ID NO 184]
125 nM,99.3%,3.14 nM,95.7%,DNPSLSIDLPFLLLRTLLELARTQSQRERAEQNAIIFASV-NH2 [SEQ ID NO 180]
154 nM,100%,5.22 nM,97.8%,DNPSLSIDLPFILLRTLLELARTQSQRERAEQNAIIFASV-NH2 [SEQ ID NO 181]
